Data: US20120277286A1, “COMPOSITIONS AND METHODS FOR THE TREATMENT OR PREVENTION OF MITOCHONDRIAL DISEASES” (The Government of the USA, as represented by the Secretary, …, priority 2009, published 2012)

Test system: HeLa cells
Assay: Parkin colocalization with mitochondria scored by confocal microscopy
Assay type: cell-based
Details: for recruitment of mutant YFP-Parkin to depolarized mitochondria / recruitment of mutant YFP-Parkin to mitochondria: HeLa; for recruitment of mutant YFP-Parkin to depolarized mitochondria: CCCP 1 hr; for recruitment of mutant YFP-Parkin to mitochondria: 10 μM CCCP, 24 hours; for cells with Parkin localized to mitochondria: HeLa transfected with Flag-tagged Twinkle for 5 days
Procedure: Cultured cells seeded in borosilicate chamber slides (Thermo Fisher Scientific) were transfected or cotransfected with YFP-Parkin, ECFP-Parkin, mCherry-Parkin, DsRed-Mito (Clontech Laboratories, Inc.), pcDNA3.1 (Invitrogen), vMIA, and/or Drp1K38A constructs using Fugene 6 (Roche). Parkin-myc was a gift from M. Cookson (National Institutes of Health, Bethesda, Md.). Cells were fixed 12-24 hours after transfection with 4% paraformaldehyde in PBS. Cells were stained with following primary antibodies: mouse monoclonal cytochrome c (BD), rabbit polyclonal Tom20 (Santa Cruz Biotechnology, Inc.), mouse monoclonal Parkin PRK8 (Santa Cruz Biotechnology, Inc.), rabbit polyclonal PMP70 (Invitrogen), and/or mouse monoclonal TRAP1 (Abcam); and with the following secondary antibodies: mouse and/or rabbit Alexa 488, 594, and 633 (Invitrogen). For assessment of mitochondrial membrane potential, cells were pulsed with 50 nM Mito-Tracker red (Invitrogen) for 15 min, washed, and incubated for an additional 10 minutes before fixation or imaging. For assessment of cell metabolic potential, cell nuclei were stained with Hoechst 33342 (Invitrogen).
Fixed cells and live cells in the FLIP assay were imaged using an inverted microscope (LSM510 Meta; Carl Zeiss, Inc.) with a 63×/1.4 oil DIC Plan Apo objective at 25° C. and 37° C., respectively. For the FLIP assay, a bleach region of interest (ROI) occupying approximately one eighth of the cell was positioned over a relatively mitochondria-free portion of the cytosol. Cells were alternately bleached (488 nm using a 30-mW argon laser at 75% power and 100% transmission for 150 iterations) and imaged (488 nm at 75% power and 2% transmission) for 10 minutes (—60 cycles over the length of the experiment). Two channel prebleach and postbleach images were obtained with 488 and 594 lasers to assess the position of mitochondria before and after bleaching. Circular ROIs with diameters of ˜1 and 5 μm, respectively, were placed over the mitochondria and cytosol of the target cell, and an ROI of 10 μm was placed over the control cell. Imaging of YFP-Parkin translocation in live HeLa cells was performed on a live cell imager system (UltraView LCI; PerkinElmer) at 35° C. with a 100×/1.45 α-Plan-Fluor objective.
Image contrast and brightness were adjusted in Photoshop (Adobe). Colocalization was assessed with line scans using MetaMorph (MDS Analytical Technologies). For analysis of mitochondrial membrane potential in cells, mitochondrial voxels in each image (the cytochrome c channel threshold was ≧400 au) were segregated into Parkin-positive (the YFP-Parkin channel threshold was ≧1,100 au) or Parkin-negative subsets, and MitoTracker intensity for each voxel was measured using Volocity software (Improvision). For each cell, the mean MitoTracker intensity per voxel was calculated for the Parkin-positive and Parkin-negative subsets. The difference in mean Mito-Tracker intensity between the Parkin-positive and Parkin-negative subsets was calculated using a paired t test. Western blotting HeLa cells stably expressing YFP-Parkin, HEK293 cells, and rat cortical neurons 2 days in vitro were harvested and fractionated as described previously (Karbowski et al., J. Cell Biol. 178: 71-84, 2007). Samples were run on SDS-PAGE and immunoblotted with the following antibodies: polyclonal rabbit anti-GFP (Invitrogen), mouse monoclonal anti-Parkin (PRK8), and mouse monoclonal anti-Porin 31HL (EMD).
Confocal microscopy of fixed samples, scoring of Parkin recruitment and Parkininduced mitophagy, and live cell imaging were performed as described previously (Narendra (2008) J Cell Biol 183: 795-803). Experiments in Mfn1/2 null cells were performed as described previously with minor modifications.
Confocal microscopy of fixed samples, scoring of Parkin recruitment and Parkin-induced mitophagy, and live cell imageing were performed as described previously (Narendra (2008) J Cell Biol 183: 795-803). […]

B1: I44A: YFP-Parkin with engineered UBL mutation (protein, UniProt O60260 1-465, looked up, variant I44A)
E3 ubiquitin-protein ligase …: MIVFVRFNSSHGFPVEVDSDTSIFQLKEVVAKRQGVPADQLRVAFAGKELRNDWTVQNCDLDQQSIVHIVQRPWRKGQEMNATGGDDPRNAAGGCEREPQSLTRVDLSSSVLPGDSVGLAVILHTDSRKDSPPAGSPAGRSIYNSFYVYCKGPCQRVQPGKLRVQCSTCRQATLTLTQGPSCWDDVLIPNRMSGECQSPHCPGTSAEFFFKCGAHPTSDKETSVALHLIATNSRNITCITCTDVRSPVLVFQCNSRHVICLDCFHLYCVTRLNDRQFVHDPQLGYSLPCVAGCPNSLIKELHHFRILGEEQYNRYQQYGAEECVLQMGGVLCPRPGCGAGLLPEPDQRKVTCEGGNGLGCGFAFCRECKEAYHEGECSAVFEASGTTTQAYRVDERAAEQARWEAASKETIKKTTKPCPRCHVPVEKNGGCMHMKCPQPQCRLEWCWNCGCEWNRVCMGDHWFDV
modifications: YFP fusion
notes: YFP-Parkin with engineered UBL mutation
  recruitment of mutant YFP-Parkin to depolarized mitochondria: moderate deficit

B2: C253Y: YFP-Parkin patient mutation in conserved RING cysteine (protein, UniProt O60260 1-465, looked up, variant C253Y)
E3 ubiquitin-protein ligase …: MIVFVRFNSSHGFPVEVDSDTSIFQLKEVVAKRQGVPADQLRVIFAGKELRNDWTVQNCDLDQQSIVHIVQRPWRKGQEMNATGGDDPRNAAGGCEREPQSLTRVDLSSSVLPGDSVGLAVILHTDSRKDSPPAGSPAGRSIYNSFYVYCKGPCQRVQPGKLRVQCSTCRQATLTLTQGPSCWDDVLIPNRMSGECQSPHCPGTSAEFFFKCGAHPTSDKETSVALHLIATNSRNITCITCTDVRSPVLVFQYNSRHVICLDCFHLYCVTRLNDRQFVHDPQLGYSLPCVAGCPNSLIKELHHFRILGEEQYNRYQQYGAEECVLQMGGVLCPRPGCGAGLLPEPDQRKVTCEGGNGLGCGFAFCRECKEAYHEGECSAVFEASGTTTQAYRVDERAAEQARWEAASKETIKKTTKPCPRCHVPVEKNGGCMHMKCPQPQCRLEWCWNCGCEWNRVCMGDHWFDV
modifications: YFP fusion
notes: YFP-Parkin patient mutation in conserved RING cysteine
  recruitment of mutant YFP-Parkin to depolarized mitochondria: completely disrupt

B3: C289G: YFP-Parkin patient mutation in conserved RING cysteine (protein, UniProt O60260 1-465, looked up, variant C289G)
E3 ubiquitin-protein ligase …: MIVFVRFNSSHGFPVEVDSDTSIFQLKEVVAKRQGVPADQLRVIFAGKELRNDWTVQNCDLDQQSIVHIVQRPWRKGQEMNATGGDDPRNAAGGCEREPQSLTRVDLSSSVLPGDSVGLAVILHTDSRKDSPPAGSPAGRSIYNSFYVYCKGPCQRVQPGKLRVQCSTCRQATLTLTQGPSCWDDVLIPNRMSGECQSPHCPGTSAEFFFKCGAHPTSDKETSVALHLIATNSRNITCITCTDVRSPVLVFQCNSRHVICLDCFHLYCVTRLNDRQFVHDPQLGYSLPGVAGCPNSLIKELHHFRILGEEQYNRYQQYGAEECVLQMGGVLCPRPGCGAGLLPEPDQRKVTCEGGNGLGCGFAFCRECKEAYHEGECSAVFEASGTTTQAYRVDERAAEQARWEAASKETIKKTTKPCPRCHVPVEKNGGCMHMKCPQPQCRLEWCWNCGCEWNRVCMGDHWFDV
modifications: YFP fusion
notes: as for B2
  recruitment of mutant YFP-Parkin to mitochondria: Mitochondrial recruitment was seen
  recruitment of mutant YFP-Parkin to depolarized mitochondria: completely disrupt

B4: C441R: YFP-Parkin patient mutation in conserved RING cysteine (protein, UniProt O60260 1-465, looked up, variant C441R)
E3 ubiquitin-protein ligase …: MIVFVRFNSSHGFPVEVDSDTSIFQLKEVVAKRQGVPADQLRVIFAGKELRNDWTVQNCDLDQQSIVHIVQRPWRKGQEMNATGGDDPRNAAGGCEREPQSLTRVDLSSSVLPGDSVGLAVILHTDSRKDSPPAGSPAGRSIYNSFYVYCKGPCQRVQPGKLRVQCSTCRQATLTLTQGPSCWDDVLIPNRMSGECQSPHCPGTSAEFFFKCGAHPTSDKETSVALHLIATNSRNITCITCTDVRSPVLVFQCNSRHVICLDCFHLYCVTRLNDRQFVHDPQLGYSLPCVAGCPNSLIKELHHFRILGEEQYNRYQQYGAEECVLQMGGVLCPRPGCGAGLLPEPDQRKVTCEGGNGLGCGFAFCRECKEAYHEGECSAVFEASGTTTQAYRVDERAAEQARWEAASKETIKKTTKPCPRCHVPVEKNGGCMHMKCPQPQRRLEWCWNCGCEWNRVCMGDHWFDV
modifications: YFP fusion
notes: as for B2
  recruitment of mutant YFP-Parkin to mitochondria: Mitochondrial recruitment was seen
  recruitment of mutant YFP-Parkin to depolarized mitochondria: completely disrupt

B5: Twinkle G575D: catalytically inactive mutant of mitochondrial DNA helicase Twinkle, Flag-tagged (protein, UniProt Q96RR1 32-684, looked up, variant G575D)
Twinkle mtDNA helicase: APGPPRRRYRKETLQALDMPVLPVTATEIRQYLRGHGIPFQDGHSCLRALSPFAESSQLKGQTGVTTSFSLFIDKTTGHFLCMTSLAEGSWEDFQASVEGRGDGAREGFLLSKAPEFEDSEEVRRIWNRAIPLWELPDQEEVQLADTMFGLTKVTDDTLKRFSVRYLRPARSLVFPWFSPGGSGLRGLKLLEAKCQGDGVSYEETTIPRPSAYHNLFGLPLISRRDAEVVLTSRELDSLALNQSTGLPTLTLPRGTTCLPPALLPYLEQFRRIVFWLGDDLRSWEAAKLFARKLNPKRCFLVRPGDQQPRPLEALNGGFNLSRILRTALPAWHKSIVSFRQLREEVLGELSNVEQAAGLRWSRFPDLNRILKGHRKGELTVFTGPTGSGKTTFISEYALDLCSQGVNTLWGSFEISNVRLARVMLTQFAEGRLEDQLDKYDHWADRFEDLPLYFMTFHGQQSIRTVIDTMQHAVYVYDICHVIIDNLQFMMGHEQLSTDRIAAQDYIIGVFRKFATDNNCHVTLVIHPRKEDDDKELQTASIFDSAKASQEADNVLILQDRKLVTGPGKRYLQVSKNRFDGDVGVFPLEFNKNSLTFSIPPKNKARLKKIKDDTGPVAKKPSSGKKGATTQNSEICSGQAPTPDQPDTSKRSK
modifications: Flag tag
  cells with Parkin localized to mitochondria: 13.1±2.3%

B6: wild-type Twinkle: Flag-tagged wild-type mitochondrial DNA helicase Twinkle (protein, UniProt Q96RR1 32-684, looked up)
Twinkle mtDNA helicase: APGPPRRRYRKETLQALDMPVLPVTATEIRQYLRGHGIPFQDGHSCLRALSPFAESSQLKGQTGVTTSFSLFIDKTTGHFLCMTSLAEGSWEDFQASVEGRGDGAREGFLLSKAPEFEDSEEVRRIWNRAIPLWELPDQEEVQLADTMFGLTKVTDDTLKRFSVRYLRPARSLVFPWFSPGGSGLRGLKLLEAKCQGDGVSYEETTIPRPSAYHNLFGLPLISRRDAEVVLTSRELDSLALNQSTGLPTLTLPRGTTCLPPALLPYLEQFRRIVFWLGDDLRSWEAAKLFARKLNPKRCFLVRPGDQQPRPLEALNGGFNLSRILRTALPAWHKSIVSFRQLREEVLGELSNVEQAAGLRWSRFPDLNRILKGHRKGELTVFTGPTGSGKTTFISEYALDLCSQGVNTLWGSFEISNVRLARVMLTQFAEGRLEDQLDKYDHWADRFEDLPLYFMTFHGQQSIRTVIDTMQHAVYVYDICHVIIDNLQFMMGHEQLSTDRIAAQDYIIGVFRKFATDNNCHVTLVIHPRKEDDDKELQTASIFGSAKASQEADNVLILQDRKLVTGPGKRYLQVSKNRFDGDVGVFPLEFNKNSLTFSIPPKNKARLKKIKDDTGPVAKKPSSGKKGATTQNSEICSGQAPTPDQPDTSKRSK
modifications: Flag tag
  cells with Parkin localized to mitochondria: 6.7±1.2%
